In publication doi:10.1101/2023.01.10.523203 (bioRxiv, 2023):
“And” between values parts separate entries of the source, which are not always exact repeats. Equal values may be shown once.

Biological target: the molecule itself
Assay: SEC

B1: LZTR1^L580P recombinant protein (LZTR1-Myc-6xHis with p.L580P) (natural protein)
chain: MAGPGSTGGQIGAAALAGGARSKVAPSVDFDHSCSDSVEYLTLNFGPFETVHRWRRLPPCDEFVGARRSKHTVVAYKDAIYVFGGDNGKTMLNDLLRFDVKDCSWCRAFTTGTPPAPRYHHSAVVYGSSMFVFGGYTGDIYSNSNLKNKNDLFEYKFATGQWTEWKIEGRLPVARSAHGATVYSDKLWIFAGYDGNARLNDMWTIGLQDRELTCWEEVAQSGEIPPSCCNFPVAVCRDKMFVFSGQSGAKITNNLFQFEFKDKTWTRIPTEHLLRGSPPPPQRRYGHTMVAFDRHLYVFGGAADNTLPNELHCYDVDFQTWEVVQPSSDSEVGGAEVPERACASEEVPTLTYEERVGFKKSRDVFGLDFGTTSAKQPTQPASELPSGRLFHAAAVISDAMYIFGGTVDNNIRSGEMYRFQFSCYPKCTLHEDYGRLWESRQFCDVEFVLGEKEECVQGHVAIVTARSRWLRRKITQARERLAQKLEQEAAPVPREAPGVAAGGARPPLLHVAIREAEARPFEVLMQFLYTDKIKYPRKGHVEDVLLIMDVYKLALSFQLCRLEQLCRQYIEASVDLQNVPVVCESAARLQLSQLKEHCLNFVVKESHFNQVIMMKEFERLSSPLIVEIVRRKQQPPPRTPLDQPVDIGTSLIQDMKAYLEGAGAEFCDITLLLDGHPRPAHKAILAARSSYFEAMFRSFMPEDGQVNISIGEMVPSRQAFESMLRYIYYGEVNMPPEDSLYLFAAPYYYGFYNNRLQAYCKQNLEMNVTVQNVLQILEAADKTQALDMKRHCLHIIVHQFTKVSKLPTLRSLSQQLLLDIIDSLASHISDKQCAELGADI
- stoichiometry N: 6 and 4
